Data from patent publication US7985587B2, “Methods of culturing dermal papilla cells” (The General Hospital Corporation, priority 2000, dated 2011).

B1: Wnt3a: Wnt protein supplied by chick embryo fibroblast feeder cells infected with RCASBP(A) retroviral vector encoding Wnt3a (protein, UniProt Q2LMP1 19-352, looked up)
Protein Wnt-3a: SYPIWWSLAIGHQYSSLGTQPILCGSIPGLVPKQLRFCRNYVEIMPSVAEGVKIGIQECQHQFRGRRWNCTTVNDSLAIFGPVLDKATRESAFVHAIASAGVAFAVTRSCAEGSATICGCDTRHKGSPGEGWKWGGCSEDVEFGSMVSREFADARENRPDARSAMNRHNNEAGRTSIIELMHLKCKCHGLSGSCEVKTCWWSQPDFRVIGDYLKDKYDSASEMVVEKHRESRGWVETLRPKYNFFKAPTEKDLVYYENSPNFCEPNPETGSFGTRDRICNVTSHGIDGCDLLCCGRGHNTRTEKRKEKCHCIFHWCCYVRCQECIRVYDVHTCK
B2: Wnt 4: Wnt protein supplied by chick embryo fibroblast feeder cells infected with RCASBP(A) retroviral vector encoding Wnt4 (protein, UniProt P49337 23-351, looked up)
Protein Wnt-4: SNWLYLAKLSSVGSISEEETCEKLKGLIQRQVQMCKRNLEVMDSVRRGAQLAIEECQYQFRNRRWNCSTLDTLPVFGKVVTQGTREAAFVYAISSAGVAFAVTRACSSGELDKCGCDRTVQGGSPQGFQWSGCSDNIAYGVAFSQSFVDVRERSKGASSNRALMNLHNNEAGRKAILNNMRVECKCHGVSGSCEFKTCWKAMPPFRKVGNVLKEKFDGATEVEQSEIGSTKVLVPKNSQFKPHTDEDLVYLDSSPDFCDHDLKNGVLGTSGRQCNKTSKAIDGCELMCCGRGFHTDEVEVVERCSCKFHWCCSVKCKPCHRVVEIHTCR

Legend:
[1] = tested on: versican GFP transgenic mouse pelage DP cells; assay: Flow cytometric analysis of GFP expression in DP cells co-cultured with feeder cells; format: cell-based; settings: for GFP expression (GFP fluorescence) of DP cells: freshly isolated DP cells co-cultured with feeder cells expressing the protein, FACS analysis
From the text: (§1) Fresh mouse pelage DP cells were obtained from versican GFP transgenic newborn skin by high-speed cell sorting (MoFLO) as described previously in Kishimoto et al., supra. Chick embryo fibroblasts (CEFs) were infected with RCASBP(A) retroviral vectors encoding chick Shh, as described in Riddle et al. (1993) Cell 75:1401-1416, Wnt3a, as described in Kengaku et al. (1998) Science 280:1274-1277, Wnt4, Wnt5a (Noramly and Morgan, in prep), or Wnt7a, as described in Riddle et al. (1995) Cell 83:631-640, or vector alone as described, as described in Morgan et al. in Methods in Cell Biology (ed. Bonner-Fraser) pp. 185-218 (Academic Press, San Diego, 1996). GFP positive mouse DP cells were added onto 30-50% confluent feeder cells to achieve a ratio of 1:3 (mouse:chick). For the flow cytometric analysis, cells were co-cultured in 24 well dishes for 48-96 hrs. For the grafting experiment co-cultured cells were passaged 2-3 times in 10 cm dishes to generate the 2×10^6 cells required for each graft.
Cells were trypsinized and resuspended in 0.5 ml PBS with 1% BSA. Flow cytometric analysis was performed by FACScan (Becton Dickinson). DP cells were labeled with mouse MHC class II monoclonal antibody and incubated with secondary IgG conjugated to PE. The PE negative avian cells fell below the lower gate in FIG. 3 and were excluded from the analysis of GFP expression.

[2] = tested on: versican GFP transgenic mouse pelage DP cells; assay: RT-PCR analysis of gene expression in DP cells co-cultured with feeder cells; format: cell-based; settings: freshly isolated DP cells co-cultured with feeder layers
Description: Total RNA was isolated and RT PCR performed as described in Kishimoto et al. (1999) Proc. Natl Acad. Sci. USA 96:7336-7341, using an annealing temperature of 58° C. The primers employed are listed below. With the exception of Wnts 4, 5 and 7, the primers were designed to distinguish between mouse and chicken orthologues and the lack of cross reaction to chick sequences was confirmed on cDNA from feeder cells alone.
as §1, with “For the grafting experiment co-cultured cells were passaged 2-3 times in 10 cm dishes to generate the 2×10^6 cells required for each graft.” left out

[3] = tested on: hair inductive activity of DP cells; assay: Skin reconstitution assay: co-cultured DP cells plus keratinocytes grafted on nude mouse hosts; format: in vivo
From the text: as §1
The reconstitution assay was performed as described in Kishimoto et al., supra. Primary keratinocytes were prepared from 2 newborn pups per graft and combined with 2×10^6 DP cells in the graft chamber. Hair growth was monitored two weeks after grafting and weekly thereafter.

[4] = DP cells maintained in culture until GFP expression and hair inductive activity were lost

| Molecule | reactivation of GFP expression in DP cells that lost it in culture [1, 4] | GFP expression (GFP fluorescence) of DP cells [1] | GFP RNA levels in DP cells [2] | reactivation of hair inductive activity in DP cells that lost it in culture [3, 4] | hair growth / hair inductive activity of co-cultured DP cells ([3]; reconstituted skin on nude mouse host, compared to cells co-cultured with control feeders or Shh expression cells) | hair in graft of treated DP cells ([3]; three weeks after grafting to nude mouse, DP cells co-cultured with feeder cells, combined with keratinocytes) |
| --- | --- | --- | --- | --- | --- | --- |
| B1 | cannot reactivate | maintenance of GFP fluorescence in the majority of the DP cells | maintained | cannot reactivate | dramatic increase in hair growth | formed a dense patch of hair in the graft |
| B2 |  | some maintenance of GFP expression but were less potent than either Wnt3a or 7a |  |  |  |  |
